Results reported in patent publication US11994512B2, “Single-cell genomic methods to generate ex vivo cell systems that recapitulate in vivo biology with improved fidelity” (Massachusetts Institute of Technology, priority 2018, dated 2024).

B1: Q9QXV0 (protein, UniProt Q9QXV0 1-258, looked up)
chain: MAGSPLLCGPRAGGVGILVLLLLGLLRLPPTLSARPVKEPRSLSAASAPLVETSTPLRLRRAVPRGEAAGAVQELARALAHLLEAERQERARAEAQEAEDQQARVLAQLLRAWGSPRASDPPLAPDDDPDAPAAQLARALLRARLDPAALAAQLVPAPAAAPRPRPPVYDDGPTGPDVEDAGDETPDVDPELLRYLLGRILTGSSEPEAAPAPRRLRRSVDQDLGPEVPPENVLGALLRVKRLENPSPQAPARRLLPP
modifications: full-length
B2: Q9QYB2 (protein, UniProt Q9QYB2 1-751, looked up)
chain: MAVPAALIPPTQLVPPQPPISTSASSSGTTTSTSSATSSPAPSIGPPASSGPTLFRPEPIASSASSSAAATVTSPGGGGGGSGGGGGSGGNGGGGGSNCNPSLAAGSSGGGVSAGGGGASSTPITASTGSSSSSSSSSSSSSSSSSSSSSSSSSSSCGPLPGKPVYSTPSPVENTPQNNECKMVDLRGAKVASFTVEGCELICLPQAFDLFLKHLVGGLHTVYTKLKRLEITPVVCNVEQVRILRGLGAIQPGVNRCKLISRKDFETLYNDCTNASSRPGRPPKRTQSVTSPENSHIMPHSVPGLMSPGIIPPTGLTAAAAAAAAATNAAIAEAMKVKKIKLEAMSNYHASNNQHGADSENGDMNSSVGSSGGSWDKETLHSPPSQGSQAPVAHARMPAAFSLPVSHPLNHLQHSHLPPNGLELPFMMMPHPLIPVSLPPASVTMAMSQMNHLSTIANMAAAAQVQSPPSRVETSVIKERVPDSPSPAPSLEEGRRPGSHPSSHRSSSVSSSPARTESSSDRIPVHQNGLSMNQMLMGLSPNVLPGPKEGDLAGHDMGHESKRIHIEKDETPLSTPTARDSIDKLSLTGHGQPLPPGFPSPFLFPDGLSSIETLLTNIQGLLKVAIDNARAQEKQVQLEKTELKMDFLRERELRETLEKQLAMEQKNRAIVQKRLKKEKKAKRKLQEALEFETKRREQAEQTLKQAASADSLRVLNDSLTPEIEADRSGGRADAERTIQDGRLYLKTTVMY
modifications: full-length
B3: Q9QYY9 (protein, UniProt Q9QYY9 1-377, looked up)
chain: MGTQGKVIKCKAAIAWKTGSPLCIEEIEVSPPKACEVRIQVIATCVCPTDINATDPKKKALFPVVLGHECAGIVESVGPGVTNFKPGDKVIPFFAPQCKRCKLCLSPLTNLCGKLRNFKYPTIDQELMEDRTSRFTCKGRSIYHFMGVSSFSQYTVVSEANLARVDDEANLERVCLIGCGFSSGYGAAINTAKVTPSSTCAVFGLGCVGLSAIIGCKIAGASRIIAIDINGEKFPKAKALGATDCLNPRELDKPVQDVITELTAGGVDYSLDCAGTAQTLKAAVDCTVLGWGSCTVVGAKVDKMTIPTVDVILGRSINGTFFGGWKSVDSVPNLVSDYKNKKFDLDLLVTHALPFESINDAIDLMKEGKSIRTILTF
modifications: full-length
B4: Q9R022 (protein, UniProt Q9R022 1-198, looked up)
chain: MDAILNYRPEGSEDYYALLGCDELSSVEQILAEFKIRALECHPDKHPENSKAVETFQKLQKAKEILCNAESRARYDHWRRSQMSMPFEQWEALADSVKTSMHWAVRSKKDLMLEGSGQTFTSSVPNKERSEQRETKKGDPDSNPEKMKQKEPKFPEEGISPQNPDSPGLSDLNCGHLRFRWSGDAPSELLRKFRNYEI
modifications: full-length
B5: Q9R098 (protein, UniProt Q9R098 1-653, looked up)
chain: MGRQAWISSLCPLPRPCPFLLLLLLLVVPRGAQPQAGRNHTEPPGPNVTATPVTPTIPVISGNVSTSTESAPAAETEGPQSERYPPPSSSSPPGGQVLTESGQPCRFPFRYGGRMLHSCTSEGSAYRKWCATTHNYDRDRAWGYCAEVTLPVEGPAILDPCASGPCLNGGTCSSTHDHGSYHCSCPLAFTGKDCGTEKCFDETRYEYFEVGDHWARVSEGHVEQCGCMEGQARCEDTHHTACLSSPCLNGGTCHLIVGTGTSVCTCPLGYAGRFCNIVPTEHCFLGNGTEYRGVASTAASGLSCLAWNSDLLYQELHVDSVAAAVLLGLGPHAYCRNPDKDERPWCYVVKDNALSWEYCRLTACESLARVHSQTPEILAALPESAPAVRPTCGKRHKKRTFLRPRIIGGSSSLPGSHPWLAAIYIGNSFCAGSLVHTCWVVSAAHCFANSPPRDSITVVLGQHFFNRTTDVTQTFGIEKYVPYTLYSVFNPNNHDLVLIRLKKKGERCAVRSQFVQPICLPEAGSSFPTGHKCQIAGWGHMDENVSSYSNSLLEALVPLVADHKCSSPEVYGADISPNMLCAGYFDCKSDACQGDSGGPLVCEKNGVAYLYGIISWGDGCGRLNKPGVYTRVANYVDWINDRIRPPKRPVATS
modifications: full-length
B6: Q9WVJ3 (protein, UniProt Q9WVJ3 1-470, looked up)
chain: MRSLFFLFIVHLLALGSGKAVFKNGVSQRTFREIKEEIANYEDVAKAIINLAVYGKYQNRSYERLGLLVDTVGPRLSGSKNLEKAIQIMYQNLQQDGLENVHLEQVRIPHWERGEESAVMLEPRIHKMAILGLGSSIGTPPGGITAEVLVVASFDELQRRASEARGKIIVYNQPYTGYEKTVQYRVQGAVEAAKVGAVASLIQSVASFSIYSPHTGIQKYQDGVPKIPTACITVEDAEMMSRMASRGNKIVIHLEMGAKTYPDTDSFNTVAEITGSMYPEEVVLVSGHLDSWDVGQGALDDGGGAFISWEALSLVKDLGLRPKRTLRLVLWTAEEQGGIGASQYYELHKANISKYSLVMEADSGTFLPTGLQFTGSDKARAIMKEVMNLLQPLNVTKVFSNGEGTDINFWIQAGVPGASLRDDLYKYFFFHHSHGDTMTVMDPKQMNVAAAVWAVVAYVVADMDEMLPRS
modifications: full-length

Test system: intracellular proteome of ENR+CD and ENR organoids
Experiment: LC-MS/MS TMT proteomics of ENR+CD versus ENR organoids
Format: cell-based, C57BL/6 mice
Conditions: for Average logFC: ENR+CD versus ENR organoids, sample pairs in aggregate (n=4, 2 technical replicates from two biological donors); for M1-1 Log2 Median Normalized / M1-2 Log2 Median Normalized / M2-1 Log2 Median Normalized / M2-2 Log2 Median Normalized: protein abundance ratio ENR+CD versus ENR organoids, LC-MS/MS TMT proteomics; for M1-1 Log2 Median Normalized: sample pair M1-1; for M1-2 Log2 Median Normalized: sample pair M1-2; for M2-1 Log2 Median Normalized: sample pair M2-1; for M2-2 Log2 Median Normalized: sample pair M2-2; for change: up = enriched in ENR+CD, down = enriched in ENR, FDR<0.05 and log fold change cut-off

Molecule	Average logFC	M1-1 Log2 Median Normalized	M1-2 Log2 Median Normalized	M2-1 Log2 Median Normalized	M2-2 Log2 Median Normalized	change
B1	1.274	1.444	0.883	1.5975	1.172	up
B2	1.286	0.838	1.286	1.3505	1.402	up
B3	−1.654	−1.109	−2.606	−2.0305	−0.87	down
B4	1.154	1.573	1.212	0.6885	1.141	up
B5	1.366	1.864	1.188	0.7445	1.669	up
B6	1.351	1.348	0.221	2.1645	1.67	up
